This assay has as its target T1, AFP-L3与凝集素复合物 (Lens culinaris, UniProt P02870 31-210; P02870 218-269, limits assumed).
T1 construct: Non-covalent complex of recombinant AFP (AFP-L3 glycoform) with lentil lectin, mass ratio AFP-L3:lectin 1:5; immobilised on a CM5 chip for SPR; Native LCA consists of processed alpha and beta chains; also called AFP-L3与LCA复合物; AFP-L3-LCA复合物
T1 sequence 1: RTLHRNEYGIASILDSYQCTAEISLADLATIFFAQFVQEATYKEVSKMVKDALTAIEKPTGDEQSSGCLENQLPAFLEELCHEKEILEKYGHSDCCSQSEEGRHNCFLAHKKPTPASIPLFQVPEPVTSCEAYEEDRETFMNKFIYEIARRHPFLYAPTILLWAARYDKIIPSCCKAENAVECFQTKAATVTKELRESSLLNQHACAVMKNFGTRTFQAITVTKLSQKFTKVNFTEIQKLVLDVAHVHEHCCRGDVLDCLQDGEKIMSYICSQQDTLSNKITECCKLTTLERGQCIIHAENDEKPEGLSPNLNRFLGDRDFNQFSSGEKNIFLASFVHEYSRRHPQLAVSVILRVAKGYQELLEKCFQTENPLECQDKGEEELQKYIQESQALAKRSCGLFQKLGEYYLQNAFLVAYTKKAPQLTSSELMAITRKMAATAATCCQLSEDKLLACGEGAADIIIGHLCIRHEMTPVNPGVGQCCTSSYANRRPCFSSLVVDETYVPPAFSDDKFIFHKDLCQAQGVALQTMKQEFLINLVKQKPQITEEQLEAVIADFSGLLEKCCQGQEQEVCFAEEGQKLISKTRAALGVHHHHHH
T1 sequence 2: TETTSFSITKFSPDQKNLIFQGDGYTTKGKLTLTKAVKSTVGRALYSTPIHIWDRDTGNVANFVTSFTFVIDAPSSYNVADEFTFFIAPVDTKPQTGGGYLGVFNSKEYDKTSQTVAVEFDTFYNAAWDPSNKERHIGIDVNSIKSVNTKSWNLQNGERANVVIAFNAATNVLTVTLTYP
T1 sequence 3: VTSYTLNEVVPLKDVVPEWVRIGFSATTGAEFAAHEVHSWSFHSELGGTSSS
The assay can be described thus: SPR, Biacore T200, complex immobilised on CM5 chip, antibody as analyte. On the technique in general: In SPR one partner is held on a chip, and binding of the other changes the refractive index at the surface.

As usually defined, the Kd is the concentration at which binding is half-saturated.

B1: Ab-03 (antibody, mouse IgG1, kappa, V domains shown)
VH: QVQLQQSGPEVVRPGVSVKISCKGSGYTFTDYAMQWVKQSHAKSLEWIGVISTYNGNTNYNQKFKGKATMTVDKSSSTAYMELARLTSEDSAIYYCARSLYYGSSPYAMDYWGQGTSVTVSS
VL: DIVMSQSPSSLAVSAGEKVTMSCKSSQSLLNSRTRKNYLAWYQQKPGQSPKLLIYWASTRESGVPDRFTGSGSGTDFTLTISSVQAEDLAVYYCKQSYNLFTFGSGTKLEIKR
notes: Mouse hybridoma antibody from ascites, Protein A purified; also called 针对AFP-L3与凝集素复合物的单克隆抗体; Ab-03抗体株
In turn, B1 registered a Kd of 2.66 nM.
